Patent publication US20230295335A1 (published 2023)
Substitutions are numbered along the chain they refer to.

T1: FcγRIIa-H131 (human, UniProt P12318 34-218, limits assumed)
T1 construct: Bought His-tagged protein; also called CD32A Protein, Human, Recombinant (167 His, His Tag)
T1 sequence (looked up): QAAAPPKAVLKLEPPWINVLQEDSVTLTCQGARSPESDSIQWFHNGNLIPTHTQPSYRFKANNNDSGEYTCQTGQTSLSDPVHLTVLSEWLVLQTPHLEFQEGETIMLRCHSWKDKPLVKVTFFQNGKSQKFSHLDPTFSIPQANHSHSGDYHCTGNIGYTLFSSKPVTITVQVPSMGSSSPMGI

T2: FcγRIIa-R131 (human, UniProt P12318 34-218, limits assumed)
T2 construct: Bought His-tagged protein; also called CD32A Protein, Human, Recombinant (167 Arg, His & AVI Tag)
T2 sequence (looked up): T1 sequence (looked up) with H134R

T3: FcγRIIb (human, UniProt P31994 43-217, limits assumed)
T3 construct: Bought His-tagged protein; also called CD32B/Fcgr2b Protein, Human, Recombinant (His & AVI Tag)
T3 sequence (looked up): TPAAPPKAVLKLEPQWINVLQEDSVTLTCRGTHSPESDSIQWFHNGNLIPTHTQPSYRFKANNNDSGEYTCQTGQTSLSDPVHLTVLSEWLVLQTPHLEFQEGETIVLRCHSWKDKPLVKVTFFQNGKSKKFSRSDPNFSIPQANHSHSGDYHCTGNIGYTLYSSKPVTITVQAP

T4: full length human EpCAM on cells (human, UniProt P16422 24-314)
T4 construct: the cell line is named under assay; also called EpCAM on DiFi, HPAF-II and A549 tumor cells; CHO-S cells transfected with full length human EpCAM
T4 sequence: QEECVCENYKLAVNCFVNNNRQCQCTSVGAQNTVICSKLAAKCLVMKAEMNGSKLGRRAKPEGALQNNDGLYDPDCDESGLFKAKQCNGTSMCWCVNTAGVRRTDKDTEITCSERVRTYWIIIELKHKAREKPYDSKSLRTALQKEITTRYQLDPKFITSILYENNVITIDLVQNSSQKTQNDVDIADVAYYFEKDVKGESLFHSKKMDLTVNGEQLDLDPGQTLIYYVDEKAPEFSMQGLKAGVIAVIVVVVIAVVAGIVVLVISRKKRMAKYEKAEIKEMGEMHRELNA

T5: recombinant human EpCAM (R&D systems, cat no 9277-EP) (human, UniProt P16422 24-265)
T5 construct: also called human EpCAM extracellular domain
T5 sequence: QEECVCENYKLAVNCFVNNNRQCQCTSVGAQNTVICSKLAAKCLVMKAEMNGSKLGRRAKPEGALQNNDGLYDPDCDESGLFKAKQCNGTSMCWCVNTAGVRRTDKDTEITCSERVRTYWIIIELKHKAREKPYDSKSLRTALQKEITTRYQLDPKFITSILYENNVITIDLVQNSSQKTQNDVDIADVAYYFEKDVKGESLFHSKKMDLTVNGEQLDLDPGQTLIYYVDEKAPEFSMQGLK

B1: IgG1-EpCAM-A37-FERL (antibody)
heavy: not shown
light: EIELTQSPGTLSLSPGERATLSCRASQTISNNYLAWYQQKRGQAPRLLIYAASSRATGIPDRFSGTGSGTDFTLTISRLEPEDFAVYYCAQGELYPRQFGGGTKLEIKRTVAAPSVFIFPPSDEQLKSGTASVVCLLNNFYPREAKVQWKVDNALQSGNSQESVTEQDSKDSTYSLSSTLTLSKADYEKHKVYACEVTHQGLSSPVTKSFNRGEC
B2: IgG1-CD137-009-HC7LC2-FEAR (antibody)
heavy: EVQLVESGGGLVQPGRSLRLSCTASGFSLNDYWMSWVRQAPGKGLEWVGYIDVGGSLYYAASVKGRFTISRDDSKSIAYLQMNSLKTEDTAVYYCARGGLTYGFDLWGQGTLVTVSSASTKGPSVFPLAPSSKSTSGGTAALGCLVKDYFPEPVTVSWNSGALTSGVHTFPAVLQSSGLYSLSSVVTVPSSSLGTQTYICNVNHKPSNTKVDKRVEPKSCDKTHTCPPCPAPEFEGGPSVFLFPPKPKDTLMISRTPEVTCVVVAVSHEDPEVKFNWYVDGVEVHNAKTKPREEQYNSTYRVVSVLTVLHQDWLNGKEYKCKVSNKALPAPIEKTISKAKGQPREPQVYTLPPSREEMTKNQVSLTCLVKGFYPSDIAVEWESNGQPENNYKTTPPVLDSDGSFFLYSRLTVDKSRWQQGNVFSCSVMHEALHNHYTQKSLSLSPG
light: DIVMTQSPSSLSASVGDRVTITCQASEDISSYLAWYQQKPGKAPKRLIYGASDLASGVPSRFSASGSGTDYTFTISSLQPEDIATYYCHYYATISGLGVAFGGGTKVEIKRTVAAPSVFIFPPSDEQLKSGTASVVCLLNNFYPREAKVQWKVDNALQSGNSQESVTEQDSKDSTYSLSSTLTLSKADYEKHKVYACEVTHQGLSSPVTKSFNRGEC
B3: bsIgG1-b12-FERL/CD137-009-HC7LC2-FEAR (bispecific antibody)
heavy 1: QVQLVQSGAEVKKPGASVKVSCQASGYRFSNFVIHWVRQAPGQRFEWMGWINPYNGNKEFSAKFQDRVTFTADTSANTAYMELRSLRSADTAVYYCARVGPYSWDDSPQDNYYMDVWGKGTTVIVSSASTKGPSVFPLAPSSKSTSGGTAALGCLVKDYFPEPVTVSWNSGALTSGVHTFPAVLQSSGLYSLSSVVTVPSSSLGTQTYICNVNHKPSNTKVDKRVEPKSCDKTHTCPPCPAPEFERGPSVFLFPPKPKDTLMISRTPEVTCVVVDVSHEDPEVKFNWYVDGVEVHNAKTKPREEQYNSTYRVVSVLTVLHQDWLNGKEYKCKVSNKALPAPIEKTISKAKGQPREPQVYTLPPSREEMTKNQVSLTCLVKGFYPSDIAVEWESNGQPENNYKTTPPVLDSDGSFLLYSKLTVDKSRWQQGNVFSCSVMHEALHNHYTQKSLSLSPG
light 1: EIVLTQSPGTLSLSPGERATFSCRSSHSIRSRRVAWYQHKPGQAPRLVIHGVSNRASGISDRFSGSGSGTDFTLTITRVEPEDFALYYCQVYGASSYTFGQGTKLERKRTVAAPSVFIFPPSDEQLKSGTASVVCLLNNFYPREAKVQWKVDNALQSGNSQESVTEQDSKDSTYSLSSTLTLSKADYEKHKVYACEVTHQGLSSPVTKSFNRGEC
heavy 2: B2 heavy
light 2: B2 light
notes: also called bsIgG1-b12-FERL/CD137-HC7LC2-FEAR; bsIgG1-b12-FERLxCD137-009-HC7LC2-FEAR
B4: BisG2amm-EpCAM-323-A3-AALT/m4-1BB-3H3-AAKR (bispecific antibody, mouse IgG2a, kappa)
heavy 1: QIQLVQSGPELKKPGETVKISCKASGYTFTNYGMNWVRQASGEGLKWMGWINTYTGEPTYGEDFKGRFAFSLETSASTAYLQINNLKNEDTATYFCARFGNYVDYWGQGTTLTVSSAKTTAPSVYPLAPVCGDTTGSSVTLGCLVKGYFPEPVTLTWNSGSLSSGVHTFPAVLQSDLYTLSSSVTVTSSTWPSQSITCNVAHPASSTKVDKKIEPRGPTIKPCPPCKCPAPNAAGGPSVFIFPPKIKDVLMISLSPMVTCVVVDVSEDDPDVQISWFVNNVEVLTAQTQTHREDYNSTLRVVSALPIQHQDWMSGKEFKCKVNNKALPAPIERTISKPKGSVRAPQVYVLPPPEEEMTKKQVTLTCMVTDFMPEDIYVEWTNNGKTELNYKNTEPVLDSDGSYLMYSKLTVEKKNWVERNSYSCSVVHEGLHNHHTTKSFSRTPG
light 1: DIVMTQAAFSNPVTLGTSASISCRSSKNLLHSNGITYLYWYLQKPGQSPHLLIYQMSNLASGVPDRFSSSGSGTDFTLRISRVEAEDVGVYYCAQNLEIPRTFGGGTKLEIKRADAAPTVSIFPPSSEQLTSGGASVVCFLNNFYPKDINVKWKIDGSERQNGVLNSWTDQDSKDSTYSMSSTLTLTKDEYERHNSYTCEATHKTSTSPIVKSFNRNEC
heavy 2: EMQLVESGGGLVQPGRSMKLSCAGSGFTLSDYGVAWVRQAPKKGLEWVAYISYAGGTTYYRESVKGRFTISRDNAKSTLYLQMDSLRSEDTATYYCTIDGYGGYSGSHWYFDFWGPGTMVTVSSAKTTAPSVYPLAPVCGDTTGSSVTLGCLVKGYFPEPVTLTWNSGSLSSGVHTFPAVLQSDLYTLSSSVTVTSSTWPSQSITCNVAHPASSTKVDKKIEPRGPTIKPCPPCKCPAPNAAGGPSVFIFPPKIKDVLMISLSPMVTCVVVDVSEDDPDVQISWFVNNVEVLTAQTQTHREDYNSTLRVVSALPIQHQDWMSGKEFKCKVNNKALPAPIERTISKPKGSVRAPQVYVLPPPEEEMTKKQVTLTCMVKDFMPEDIYVEWTNNGKTELNYKNTEPVLDSDGSYFMYSRLRVEKKNWVERNSYSCSVVHEGLHNHHTTKSFSRTPG
light 2: DIQMTQSPSLLSASVGDRVTLNCRTSQNVYKNLAWYQQKLGEAPKLLIYNANSLQAGIPSRFSGSGSGTDFTLTISSLQPEDVATYFCQQYYSGNTFGAGTNLELKRADAAPTVSIFPPSSEQLTSGGASVVCFLNNFYPKDINVKWKIDGSERQNGVLNSWTDQDSKDSTYSMSSTLTLTKDEYERHNSYTCEATHKTSTSPIVKSFNRNEC
notes: Mouse IgG2a bispecific made by controlled Fab-arm exchange; one EpCAM arm, so monovalent for EpCAM; also called BsIgG2amm-EpCAM-323-A3-AALT/m4-1BB-3H3-AAKR; BisIgG2amm-EpCAM-323-A3-AALT/m4-1BB-3H3-AAKR
B5: bsIgG1-b12-FERL/b12-FEAR (bispecific antibody)
heavy 1: B3 heavy 1
heavy 2: B3 heavy 1 with R246G, D275A, L415F, K419R
light: B3 light 1
notes: also called b12-FERLxb12-FEAR; bsIgG1-ctrl-b12-FERL/b12-FEAR

How the values were obtained:
FcγRIa = biological target: T6, FcγRIa (human, UniProt P12314 16-288, limits assumed, biotinylated); assay: SPR (Biacore 8K); His-tagged FcγR captured on anti-His chip
T6 construct: Bought His-tagged protein captured on anti-His chip; also called CD64 Protein, Human, Recombinant (His Tag), Biotinylated
Procedure: (§1) At the end of each cycle, the surface was regenerated using 10 mM Glycine-HCl pH 1.5 (Cytiva, cat. no. BR100354).

FcγRIIa-H131 = biological target: T1, FcγRIIa-H131; assay: as above
Procedure: as §1

FcγRIIa-R131 = biological target: T2, FcγRIIa-R131; assay: as above
Procedure: as §1

FcγRIIb = biological target: T3, FcγRIIb; assay: as above
Procedure: as §1

FcγRIIIa-F158 = biological target: T7, FcγRIIIa-F158 (human, UniProt P08637 17-208); assay: as above
T7 construct: extracellular domain; Bought His-tagged protein
Procedure: as §1

FcγRIIIa-V158 = biological target: T8, FcγRIIIa-V158 (human, UniProt P08637 17-208); assay: as above
T8 construct: Bought His-tagged protein
Procedure: as §1

[1] = biological target: T9, neonatal Fc receptor (FcRn), His-tagged (SinoBiological, cat. no. CT009-H08H-B) (UniProt P55899 24-297); assay: SPR kinetics assay at pH 6.0; His-tagged FcRn captured on anti-His chip, antibody 0-500 nM
Procedure: (§2) In a separate experiment, binding to neonatal Fc receptor (FcRn) was tested by SPR, using a kinetics assay with the following changes to the methods described above. […] Experiments were performed three times at pH 6.0 (under acidic conditions, at which IgG binds to FcRn) and two times at pH 7.4 (binding to IgG is not expected at this pH).

[2] = biological target: T9, neonatal Fc receptor (FcRn), His-tagged …; assay: SPR kinetics assay at pH 6.0; His-tagged FcRn captured on anti-His chip, antibody 0-500 nM; mean of three experiments
Procedure: as §2

[3] = biological target: T4, full length human EpCAM on cells; assay: flow cytometry on DiFi tumor cells
Procedure: Binding to the EpCAM-expressing human tumor cell lines DiFi, HPAF-II and A549 by bivalent EpCAM antibodies or bispecific antibodies carrying one EpCAM-binding arm was analyzed by flow cytometry. […] Next, cells were washed once (A-D) or twice (E) in FACS buffer, re-suspended in 100 μL FACS buffer and analyzed on a BD LSRFortessa FACS (BD Biosciences, USA), Celesta (BD Biosciences, USA) or iQue (Sartorius, Germany). Binding curves were analyzed using non-linear regression (sigmoidal dose-response with variable slope) using GraphPad Prism V7.02 software (GraphPad Software, San Diego, CA, USA).

[4] = biological target: T5, recombinant human EpCAM (R&D systems, …); assay: BLI (Octet HTX); His-tagged human EpCAM on anti-Penta-HIS sensors, antibody 1.56-100 nM as analyte
Procedure: (§3) Experiments were carried out while shaking at 1,000 RPM at 30° C. […] For each antibody a reference sensor was used, which was incubated with Sample Diluent instead of antibody.
(§4) Data were acquired using Data Acquisition Software V12.0 (FortéBio) and analyzed with Data Analysis Software v12 (FortéBio). Data traces were corrected per antibody by subtraction of the reference sensor. The Y-axis was aligned to the last 10 s of the baseline. Interstep Correction alignment to dissociation and Savitzky-Golay filtering were applied. Data traces with a response <0.05 nm were excluded from analysis. The data was fitted with the 1:1 Global Full fit model, using a window of interest for association of 200 s and dissociation times set at 50 s and 200 s (indicated in Table 4 and Table 5). The dissociation time that was used for the reported data was chosen based upon visual inspection of the curve-fits and highest R² value. Data corresponding to curve fits with a R²<0.98 were excluded from analyses.

[5] = biological target: T5, recombinant human EpCAM (R&D systems, …); assay: BLI (Octet HTX); His-tagged human EpCAM on anti-Penta-HIS sensors, antibody as analyte; 1:1 global full fit
Procedure: as §3, §4

T9 sequence (P55899 24-297 limits assumed, form in doubt): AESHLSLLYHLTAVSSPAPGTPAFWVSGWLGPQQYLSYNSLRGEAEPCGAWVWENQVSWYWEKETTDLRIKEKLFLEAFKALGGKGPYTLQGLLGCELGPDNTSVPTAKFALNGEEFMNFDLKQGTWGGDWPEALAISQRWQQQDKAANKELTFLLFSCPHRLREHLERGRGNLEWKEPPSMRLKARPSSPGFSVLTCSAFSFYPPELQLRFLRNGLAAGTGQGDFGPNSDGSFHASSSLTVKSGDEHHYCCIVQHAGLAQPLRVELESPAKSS
T8 sequence (P08637 17-208 F176V limits assumed): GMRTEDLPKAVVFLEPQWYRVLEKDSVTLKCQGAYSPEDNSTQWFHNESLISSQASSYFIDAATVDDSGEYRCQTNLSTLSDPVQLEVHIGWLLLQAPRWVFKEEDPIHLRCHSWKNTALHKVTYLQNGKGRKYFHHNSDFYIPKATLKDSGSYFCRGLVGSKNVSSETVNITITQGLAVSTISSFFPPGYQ
T6 sequence (P12314 16-288 limits assumed): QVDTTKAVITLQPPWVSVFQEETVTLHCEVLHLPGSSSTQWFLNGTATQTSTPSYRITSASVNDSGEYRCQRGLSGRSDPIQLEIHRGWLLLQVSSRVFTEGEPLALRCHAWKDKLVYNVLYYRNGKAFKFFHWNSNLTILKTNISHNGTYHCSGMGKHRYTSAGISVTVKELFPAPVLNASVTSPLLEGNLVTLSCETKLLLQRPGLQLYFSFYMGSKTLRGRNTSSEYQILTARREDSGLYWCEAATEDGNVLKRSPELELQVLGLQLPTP
T7 sequence (P08637 17-208): as the sequence (P08637 17-208 F176V limits assumed) above, with V160F counted along it

| Binder | binding result (FcγRIa) | binding result (FcγRIIa-H131) | binding result (FcγRIIa-R131) | binding result (FcγRIIb) | binding result (FcγRIIIa-F158) | binding result (FcγRIIIa-V158) | koff [1] | kon [1] | Kd [2] | binding result [3] | other results |
| --- | --- | --- | --- | --- | --- | --- | --- | --- | --- | --- | --- |
| B1 | no binding (tested: 3,000 nM (highest concentration tested)) | no binding (tested: 10,000 nM (highest concentration tested)) | no binding (tested: 10,000 nM (highest concentration tested)) | no binding (tested: 10,000 nM (highest concentration tested)) | no binding (tested: 10,000 nM (highest concentration tested)) | no binding (tested: 10,000 nM (highest concentration tested)) | 0.0413 s⁻¹ | 180000 M⁻¹ s⁻¹ | 230 nM |  |  |
| B2 | no binding (tested: 3,000 nM (highest concentration tested)) | no binding (tested: 10,000 nM (highest concentration tested)) | no binding (tested: 10,000 nM (highest concentration tested)) | no binding (tested: 10,000 nM (highest concentration tested)) | no binding (tested: 10,000 nM (highest concentration tested)) | no binding (tested: 10,000 nM (highest concentration tested)) | 0.0539 s⁻¹ | 143000 M⁻¹ s⁻¹ | 375 nM |  |  |
| B3 |  |  |  |  |  |  |  |  |  | no binding (tested: up to 30 µg/mL) |  |
| B4 |  |  |  |  |  |  |  |  |  |  | Response [4]: 1.21 nm; Kd [5]: 3.2 nM; koff [5]: 0.0011 s⁻¹; kon [5]: 340000 M⁻¹ s⁻¹ |
| B5 |  |  |  |  |  |  |  |  |  | no binding (tested: up to 30 µg/mL) |  |
